{
  "source": "patent US20230374072A1",
  "about": "(priority 2020, published 2023)",
  "system": "TNF expression in HUVEC cell culture",
  "data": [
    {"substance": "Gly-Asp-Cys-Pro-Pro-Trp-Cys-Gly-Ala-Arg-Cys-(XXX)-Cys [SEQ ID NO:1 scaffolding protein]", "values": [
      {"measurement": "toxic activity (activity of the toxin)", "value": "does not present any type of toxic activity"}
    ]}
  ]
}
